Measured values as given in patent US20120130079A1.

Key:
[1] = target: purified His-tagged Stat3 (murine Stat3, recombinant, expressed in BL21(DE3)) (murine) (UniProt P42227); experiment: SPR (SensiQ), peptide as analyte over His-Stat3 immobilised on HisCap/Ni-NTA sensor chip
[2] = target: purified His-tagged Stat3 (murine Stat3, recombinant, expressed in BL21(DE3)) (murine) (UniProt P42227); experiment: fluorescence polarization competition; competitor/probe 5-carboxyfluorescein-GpYLPQTV-NH2 (10 nM), His-Stat3 150 nM

Sequence of purified His-tagged Stat3 (murine Stat3, recombinant, expressed in BL21(DE3)) (murine) (P42227 whole entry): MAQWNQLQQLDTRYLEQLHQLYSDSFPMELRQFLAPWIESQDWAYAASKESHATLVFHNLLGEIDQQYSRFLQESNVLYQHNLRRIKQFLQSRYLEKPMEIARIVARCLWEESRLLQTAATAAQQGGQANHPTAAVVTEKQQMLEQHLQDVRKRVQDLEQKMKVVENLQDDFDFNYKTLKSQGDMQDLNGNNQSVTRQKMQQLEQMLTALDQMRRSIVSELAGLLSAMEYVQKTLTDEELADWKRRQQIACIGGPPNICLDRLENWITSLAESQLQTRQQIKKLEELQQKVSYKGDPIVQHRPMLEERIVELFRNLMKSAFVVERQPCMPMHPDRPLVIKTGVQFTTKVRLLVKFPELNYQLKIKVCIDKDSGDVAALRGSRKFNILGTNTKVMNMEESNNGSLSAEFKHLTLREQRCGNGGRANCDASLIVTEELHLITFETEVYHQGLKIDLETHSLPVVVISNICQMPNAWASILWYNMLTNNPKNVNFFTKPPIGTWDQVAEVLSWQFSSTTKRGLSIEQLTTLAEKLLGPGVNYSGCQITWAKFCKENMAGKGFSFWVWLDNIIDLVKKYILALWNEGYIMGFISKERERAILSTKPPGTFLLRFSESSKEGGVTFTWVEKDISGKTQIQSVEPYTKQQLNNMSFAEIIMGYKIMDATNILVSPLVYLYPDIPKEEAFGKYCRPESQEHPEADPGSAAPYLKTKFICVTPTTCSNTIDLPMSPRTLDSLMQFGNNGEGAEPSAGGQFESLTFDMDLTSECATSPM

- Kd [1]: 24 nM
- IC50 [2]: 300 nM
Substance: GpYLPQTV-NH2, high affinity Stat3-binding phosphoTyr peptide derived from the interleukin-6 receptor subunit gp-130
